pKd: −log10 of the molar value.

The data set relates to Grsf1-GST. The data set is described as follows: EMSA. The conditions noted are these: 10 mM HEPES-NaOH pH 7.9, 25 mM KCl, 1.5 mM EDTA, 4% glycerol, 0.25 mM DTT, 7.5 ug/uL heparin, 25 ng/uL yeast tRNA, 20 min at 30 C; native 5% PAGE.

With “Use1 dG4 probe (GGGG deleted from A(G)4A)”, the pKd was 5.36.
The substance Use1 5'UTR WT A(G)4A probe gave a pKd of 6.28.

Values taken from PMC4153549.
